Laboratory results: paper PMC12056058 (Nature Communications, 2025)
Changes are numbered by the printed parent chain. Names and notes keep the numbering of the source. Values belong to the molecule of their own block, whether it stands above or below them.

Legend:
[1] = target: T1, Fis1 (mitochondrial fission protein 1), cytosolic domain (Homo sapiens, UniProt Q9Y3D6, T34D); assay: CPM thiol fluorescence competition; type: binding; details: read-out: apparent IC50
T1 construct: cytosolic domain, C-terminal HRV 3C site and His6 tag (cut off), codon optimized, E. coli BL21(DE3); first 30 residues disordered in mutant crystals
T1 sequence (Q9Y3D6 1-123 T34D): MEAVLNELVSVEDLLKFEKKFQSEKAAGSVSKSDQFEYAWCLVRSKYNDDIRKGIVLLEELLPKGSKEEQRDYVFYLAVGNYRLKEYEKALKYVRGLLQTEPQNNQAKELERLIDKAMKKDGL

[2] = target: the molecule itself; assay: crystal structure; tag-free Fis1 protein/mutant at 8 mg/ml, sitting drop; data at 100 K, SSRL BL12-2; molecular replacement with PDB 1NZN

- IC50 [1]: 9.4 µM
Molecule: CN(CCCN1c2ccccc2Sc2ccccc21)C(=O)CCl [SP11, N-(3-(10H-phenothiazin-10-yl)propyl)-2-chloro-N-methylacetamide]

- IC50 [1]: 15.4 µM
Molecule: C=CC(=O)N(C)CCCN1c2ccccc2Sc2ccccc21 [SP22, N-(3-(10H-phenothiazin-10-yl)propyl)-N-methylacrylamide]

B1: Thr34Asp Fis1, cytosolic domain, tag-free (domain or fragment, human)
chain: T1 sequence (Q9Y3D6 1-123 T34D)
notes: Mitochondrial fission protein 1 (Fis1), human, cytosolic domain; also called T34D; phosphorylation mimic-mutant; source: E. coli BL21 (DE3), purified (Ni-NTA, HRV 3C cleavage, reverse Ni-NTA); not shown: His6, C-terminal, cleaved
- binding result [2]: binds

B2: Thr34Glu Fis1, cytosolic domain, tag-free (domain or fragment, human)
chain: T1 sequence (Q9Y3D6 1-123 T34D) with D34E
notes: Mitochondrial fission protein 1 (Fis1), human, cytosolic domain; also called phosphorylation mimic-mutant; source: E. coli BL21 (DE3), purified (Ni-NTA, HRV 3C cleavage, reverse Ni-NTA); not shown: His6, C-terminal, cleaved
- binding result [2]: binds

B3: Tyr38Glu Fis1, cytosolic domain, tag-free (domain or fragment, human)
chain: T1 sequence (Q9Y3D6 1-123 T34D) with D34T, Y38E
notes: Mitochondrial fission protein 1 (Fis1), human, cytosolic domain; also called Y38E; phosphorylation mimic-mutant; source: E. coli BL21 (DE3), purified (Ni-NTA, HRV 3C cleavage, reverse Ni-NTA); not shown: His6, C-terminal, cleaved
- binding result [2]: binds
